Results published in the RNAGym collection of RNA variant scans (doi:10.1101/gr.219683.116).

B1: mRNA-splicing (parent)
chain: AGUUGCUGCUGGGAGCUCCAGCACAGUGAAAUGGACAGAAGGGCAGAGCAA

Variants of: B1
Assay: exon inclusion enrichment index; higher = more inclusion; WT1 exon 5 minigene, HEK293

| Variant | exon inclusion enrichment index |
| --- | --- |
| C6A U7C C9A U10C A40C G41A | 1.84 |
| C6A U7C C9A U10C A40C G41C | 3.56 |
| C6A U7C C9A U10C A40C G41U | 1.87 |
| C6A U7C C9A U10C G13A A14C | 3.39 |
| C6A U7C C9A U10C G13A A14G | 3 |
| C6A U7C C9A U10C G13A A14U | 3.22 |
| C6A U7C C9A U10C G13C A14U | 2.57 |
| C6A U7C C9A U10C G13C A14G | 2.83 |
| C6A U7C C9A U10C G13C A14C | 2.43 |
| C6A U7C C9A U10C G12A G13U | 1.08 |
| C6A U7C C9A U10C G12A G13C | 2.54 |
| C6A U7C C9A U10C G12A G13A | 2.17 |
| C6A U7C C9A U10C A29C | 3.21 |
| C6A U7C C9A U10C A29U | 1.74 |
| C6A U7C C9A U10C A29G | 3.29 |
| C6A U7A G8A U10A | 0.0891 |
| C6A U7C C9A U10C A23U C24G | 3.98 |
| C6A U7C C9A U10C A23U C24A | 1.89 |
| C6A U7C C9A U10C A23U C24U | 0.978 |
| C6A U7C C9A U10C A40G G41C | 3.6 |
| C6A U7C C9A U10C A40G G41A | 1.83 |
| C6A U7C C9A U10C A40G G41U | 2.58 |
| C6A U7C C9A U10C G11C G12U | 2.2 |
| C6A U7C C9A U10C G11C G12A | 2.17 |

| Variant | exon inclusion enrichment index |
| --- | --- |
| C6A U7C C9A U10C G11C G12C | 2.59 |
| C6A U7C C9A U10C C22U A23U | 2.51 |
| C6A U7C C9A U10C C22U A23C | 2.11 |
| C6A U7C C9A U10C C22U A23G | 3.38 |
| C6A U7C C9A U10C C22A A23G | 3.9 |
| C6A U7C C9A U10C C22A A23U | 2.92 |
| C6A U7C C9A U10C C22A A23C | 3.88 |
| C6A U7A G8C C9A U10A | 0.471 |
| C6A U7A G8C C9A U10C | 1.95 |
| C6A U7C C9A U10C C36U A37U | 1.97 |
| C6A U7C C9A U10C C36U A37C | 2.39 |
| C6A U7C C9A U10C C36U A37G | 2.91 |
| C6A U7C C9A U10C C44U A45G | 2.34 |
| C6A U7C C9A U10C C44U A45U | 2.71 |
| C6A U7C C9A U10C C44U A45C | 3.64 |
| C6A U7C C9A U10C G12U | 2.7 |
| C6A U7C C9A U10C G12A | 3.18 |
| C6A U7C C9A U10C G12C | 3.68 |
| C6A U7C C9A U10C A30G | 3.61 |
| C6A U7C C9A U10C A30C | 3.29 |
| C6A U7C C9A U10C A30U | 2.51 |
| C6A U7C C9A U10C C24U | 1.66 |
| C6A U7C C9A U10C C24A | 2.94 |
| C6A U7C C9A U10C C24G | 3.61 |

| Variant | exon inclusion enrichment index |
| --- | --- |
| C6A U7C C9A U10C A47U G48U | 2.6 |
| C6A U7C C9A U10C A47U G48C | 2.31 |
| C6A U7C C9A U10C A47U G48A | 2.69 |
| C6A U7C C9A U10C A40G | 3.27 |
| C6A U7C C9A U10C A40C | 3.36 |
| C6A U7C C9A U10C A40U | 2.61 |
| C6A U7C C9A U10C C19A A20G | 0.968 |
| C6A U7C C9A U10C C19A A20U | 2.07 |
| C6A U7C C9A U10C C19A A20C | 2.73 |
| C6A U7C C9A U10C A14U G15C | 2.67 |
| C6A U7C C9A U10C A14U G15A | 2.06 |
| C6A U7C C9A U10C A14U G15U | 2.08 |
| C6A U7C C9A U10C A37G G38C | 3.21 |
| C6A U7C C9A U10C A37G G38U | 1.68 |
| C6A U7C C9A U10C A37G G38A | 3 |
| C6A U7C C9A U10C A45C G46C | 2.21 |
| C6A U7C C9A U10C A45C G46U | 1.54 |
| C6A U7C C9A U10C A45C G46A | 1.88 |
| C6A U7A G8C U10A | 0.371 |
| C6A U7C C9A U10A G11A | 1.98 |
| C6A U7C C9A U10A G11C | 2.78 |
| C6A U7C C9A U10A G11U | 2.49 |
| C6A U7C C9A U10C C19A | 2.55 |
| C6A U7C C9A U10C C19G | 3.61 |

| Variant | exon inclusion enrichment index |
| --- | --- |
| C6A U7C C9A U10C C19U | 0.759 |
| C6A U7C C9A U10C C24G A25C | 4.59 |
| C6A U7C C9A U10C C24G A25U | 3.51 |
| C6A U7C C9A U10C C24G A25G | 2.34 |
| C6A U7C C9A U10C A35C C36U | 0.742 |
| C6A U7C C9A U10C A35C C36A | 2.28 |
| C6A U7C C9A U10C A35C C36G | 2.56 |
| C6A U7C C9A U10C A20C G21A | 2.38 |
| C6A U7C C9A U10C A20C G21U | 2.72 |
| C6A U7C C9A U10C A20C G21C | 2.31 |
| C6A U7C C9A U10C A20U G21C | 3.73 |
| C6A U7C C9A U10C A20U G21A | 2.77 |
| C6A U7C C9A U10C A20U G21U | 2.83 |
| C6A U7C C9A U10C C18U C19G | 1.93 |
| C6A U7C C9A U10C C18U C19U | 0.145 |
| C6A U7C C9A U10C C18U C19A | 0.757 |
| C6A U7C C9A U10C C36G A37C | 1.56 |
| C6A U7C C9A U10C C36G A37U | 1.89 |
| C6A U7C C9A U10C C36G A37G | 1.36 |
| C6A U7C C9A U10C A39G A40U | 0.497 |
| C6A U7C C9A U10C A39G A40G | 0.569 |
| C6A U7C C9A U10C A39G A40C | 3.81 |
| C6A U7C C9A U10C A45G G46U | 2.89 |
| C6A U7C C9A U10C A45G G46A | 4.93 |

| Variant | exon inclusion enrichment index |
| --- | --- |
| C6A U7C C9A U10C A45G G46C | 3.3 |
| C6A U7A G8A C9G U10A | 0.2 |
| C6A U7C C9A U10C G11A G12C | 2.2 |
| C6A U7C C9A U10C G11A G12A | 2.21 |
| C6A U7C C9A U10C G11A G12U | 1.87 |
| C6A U7C C9A U10C A35G C36A | 2.29 |
| C6A U7C C9A U10C A35G C36G | 0.776 |
| C6A U7C C9A U10C A35G C36U | 0.107 |
| C6A U7C C9A U10C A20G G21U | 1.35 |
| C6A U7C C9A U10C A20G G21C | 3.34 |
| C6A U7C C9A U10C A20G G21A | 3.72 |
| C6A U7C C9A U10C A47C G48A | 2.16 |
| C6A U7C C9A U10C A47C G48U | 3.09 |
| C6A U7C C9A U10C A47C G48C | 2.81 |
| C6A U7C C9A U10C A45G | 4.95 |
| C6A U7C C9A U10C A45U | 3.86 |
| C6A U7C C9A U10C A45C | 3.19 |
| C6A U7A G8U U10A | 0.0805 |
| C6A U7C C9A U10C A30G A31U | 1.6 |
| C6A U7C C9A U10C A30G A31C | 0.677 |
| C6A U7C C9A U10C A30G A31G | 1.7 |
| C6A U7A G8U C9A | 0.467 |
| C6A U7C C9A U10C A37U G38A | 1.46 |
| C6A U7C C9A U10C A37U G38U | 1.27 |

| Variant | exon inclusion enrichment index |
| --- | --- |
| C6A U7C C9A U10C A37U G38C | 2.21 |
| C6A U7C C9A U10C A14G G15C | 2.29 |
| C6A U7C C9A U10C A14G G15U | 2.01 |
| C6A U7C C9A U10C A14G G15A | 3.53 |
| C6A U7C C9A U10C C44G A45G | 1.29 |
| C6A U7C C9A U10C C44G A45C | 4.25 |
| C6A U7C C9A U10C C44G A45U | 3.12 |
| C6A U7C C9A U10C G12U G13C | 0.584 |
| C6A U7C C9A U10C G12U G13U | 0.542 |
| C6A U7C C9A U10C G12U G13A | 1.25 |
| C6A U7A U10C | 2.53 |
| C6A U7A U10G | 0.84 |
| C6A U7A U10A | 0.234 |
| C6A U7C C9A U10C A37C G38U | 2.3 |
| C6A U7C C9A U10C A37C G38A | 2.46 |
| C6A U7C C9A U10C A37C G38C | 3.1 |
| C6A U7C C9A U10C C22G A23C | 1.74 |
| C6A U7C C9A U10C C22G A23U | 0.87 |
| C6A U7C C9A U10C C22G A23G | 2.55 |
| C6A U7C C9A U10C C19U A20G | 1.79 |
| C6A U7C C9A U10C C19U A20C | 3.08 |
| C6A U7C C9A U10C C19U A20U | 2.13 |
| C6A U7C C9A U10C A20C | 3.02 |
| C6A U7C C9A U10C A20U | 3.39 |

| Variant | exon inclusion enrichment index |
| --- | --- |
| C6A U7C C9A U10C A20G | 3.85 |
| C6A U7C C9A U10C C16A U17G | 2.33 |
| C6A U7C C9A U10C C16A U17C | 3.21 |
| C6A U7C C9A U10C C16A U17A | 3.43 |
| C6A U7C C9A U10C A29U A30U | 1.98 |
| C6A U7C C9A U10C A29U A30C | 2.97 |
| C6A U7C C9A U10C A29U A30G | 3.55 |
| C6A U7C C9A U10C A35U C36G | 0.375 |
| C6A U7C C9A U10C A35U C36U | 0.135 |
| C6A U7C C9A U10C A35U C36A | 0.00835 |
| C6A U7C C9A U10C C36U | 1.34 |
| C6A U7C C9A U10C C36A | 2.48 |
| C6A U7C C9A U10C C36G | 2.75 |
| C6A U7C C9A U10C C36A A37C | 3.18 |
| C6A U7C C9A U10C C36A A37G | 1.73 |
| C6A U7C C9A U10C C36A A37U | 2.17 |
| C6A U7C C9A U10C A30C A31U | 3.15 |
| C6A U7C C9A U10C A30C A31C | 4.36 |
| C6A U7C C9A U10C A30C A31G | 3.94 |
| C6A U7C C9A U10C A29C A30C | 3.72 |
| C6A U7C C9A U10C A29C A30G | 4.07 |
| C6A U7C C9A U10C A29C A30U | 2.76 |
| C6A U7A G8C C9U U10A | 0.0222 |
